Sequences and labels used below:
B1: Antibody 63 (antibody, V domains shown)
VH: QVQLQESGPGLVKPSGTLSLTCAVSGGSISSSNWWSWVRQPPGKGLEWIGEIYHYGYTNYNPSLKSRVTISVDKSKNQFSLKLSSVTAADTAVYYCAREGIGWPSFDYWGQGTLVTVSS
VL: SSELTQDPAASVALGQTVRITCQGDTLRNYYASWYQQKPGQAPILVIYGKNNRPSGIPDRFSGSSSGNTASLTITGAQAEDEADYYCNSRDSSGKNLVFGGGTKLTVL
B2: Antibody 73 (antibody, V domains shown)
VH: B1 VH with S84I
VL: B1 VL with N29S
B3: Antibody 71 (antibody, V domains shown)
VH: B1 VH
VL: B1 VL with N29S, S92E
B4: Antibody 72 (antibody, V domains shown)
VH: B1 VH
VL: B1 VL with N29S, S92F
B5: Antibody 76 (antibody, V domains shown)
VH: B1 VH with S84I
VL: B1 VL with S92E
B6: Antibody 66 (antibody, V domains shown)
VH: B1 VH
VL: SSELTQDPAASVALGQTVRITCQGDTLRNYYASWYQQKPGQAPILVIYGKNNRPSGIPDRFSGSSSGNTASLTITGAQAEDEADYYCNSRDLSGKNLVFGGGTKLTVLG
B7: Antibody 65 (antibody, V domains shown)
VH: B1 VH
VL: B1 VL with D91E
B8: Antibody 69 (antibody, V domains shown)
VH: B1 VH
VL: B1 VL with N29S, D91E
B9: Antibody 77 (antibody, V domains shown)
VH: B1 VH with S84I
VL: B1 VL with S92F
B10: Antibody 67 (antibody, V domains shown)
VH: B1 VH
VL: B1 VL with S92E
B11: Antibody 75 (antibody, V domains shown)
VH: B1 VH with S84I
VL: B1 VL with S92L
B12: Antibody 74 (antibody, V domains shown)
VH: B1 VH with S84I
VL: B1 VL with D91E
B13: Antibody 64 (antibody, V domains shown)
VH: B1 VH
VL: B6 VL with N29S, L92S
B14: Antibody 68 (antibody, V domains shown)
VH: B1 VH
VL: B6 VL with L92F

Residue numbers refer to the chain shown, from its start.

Sequence of human IL-15 complexed with the IL-15 Receptor-alpha (P40933 49-162 limits assumed, chain 1 of 2): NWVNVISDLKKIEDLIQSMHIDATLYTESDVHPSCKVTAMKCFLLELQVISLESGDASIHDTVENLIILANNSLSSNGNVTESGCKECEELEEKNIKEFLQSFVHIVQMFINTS
Sequence of human IL-15 complexed with the IL-15 Receptor-alpha (chain, as listed by the source limits assumed, chain 2 of 2): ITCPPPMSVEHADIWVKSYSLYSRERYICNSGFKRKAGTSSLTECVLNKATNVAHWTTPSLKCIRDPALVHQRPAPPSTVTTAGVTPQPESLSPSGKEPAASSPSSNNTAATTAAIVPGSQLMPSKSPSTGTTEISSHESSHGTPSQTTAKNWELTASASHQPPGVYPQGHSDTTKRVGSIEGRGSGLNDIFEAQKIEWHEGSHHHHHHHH

The test concerns the target human IL-15 complexed with the IL-15 Receptor-alpha (human, UniProt P40933 49-162). Description: cell-based or functional assay.
Regarding B1, the “IC 50 (NK-92) in pM” value turned out to be 4.21 pM.
Take B2: the “IC 50 (NK-92) in pM” value is 11.8 pM.
Under B3 stands 26.4 pM.
B4: the “IC 50 (NK-92) in pM” value came out at 20.9 pM.
As to B5, the “IC 50 (NK-92) in pM” value was found to be 7.69 pM.
In the case of B6, the “IC 50 (NK-92) in pM” value was 6.04 pM.
With B7 the figure was 42.5 pM.
For the molecule B8, the “IC 50 (NK-92) in pM” value turned out to be 162 pM.
With B9 the figure was 5.69 pM; with B10, 7.69 pM; with B11, 3.14 pM.
Consider B12, for which the “IC 50 (NK-92) in pM” value is 33.9 pM.
With B13 the figure was 13.6 pM; with B14, 5.34 pM.
